Reference: patent US20200095278A1 (USTAV ORGANICKE CHEMIE A BIOCHEMIE AV CR V V I, published 2020)
No end group written: not given here.

Experiments:
[1] = target: T1, E. coli rhomboid protease GlpG (E. coli, UniProt P09391 1-276, limits assumed); assay: cell-based or functional assay
T1 sequence (looked up): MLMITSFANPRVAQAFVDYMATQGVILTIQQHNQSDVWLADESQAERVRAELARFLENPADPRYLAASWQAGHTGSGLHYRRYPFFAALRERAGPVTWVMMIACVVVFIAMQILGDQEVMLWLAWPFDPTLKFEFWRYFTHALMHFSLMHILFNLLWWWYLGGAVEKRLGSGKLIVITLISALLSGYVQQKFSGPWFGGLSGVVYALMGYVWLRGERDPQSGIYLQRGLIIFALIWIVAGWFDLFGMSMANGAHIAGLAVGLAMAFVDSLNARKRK

[2] = target: T1, E. coli rhomboid protease GlpG; assay: in vitro inhibition of rhomboid protease GlpG, as described (Ticha et al., 2017); printed as a Ki range

Ac-RVRHA-{keto‑C(:O)NH-benzyl} [Compound 4]
IC50 (µM), measured in vitro as described (Ticha et al., 2017) [1]: 7.64 µM

B1: Compound 9 (peptide)
peptide: Ac-RVRHA
modifications: also: C-terminal Ala as alpha-ketoamide, -CO-CO-NH-(CH2)2-Ph
notes: Structure is printed only as a drawing; Tail inferred from monoisotopic mass 810.461290, MW 810.96, and the NMR; It has the same mass as compound 5; also called Cpd No. 9
IC50 (µM), measured in vitro as described (Ticha et al., 2017) [1]: 0.34 µM
Ki [2]: 10 to 100 nM

Ac-Arg-His-Ala (not fully specified (C-terminus)) [Compound 13]
IC50 (µM), measured in vitro as described (Ticha et al., 2017) [1]: 9.05 µM

Ac-RVRHA-{keto‑C(:O)NH2} [Compound 1]
IC50 (µM), measured in vitro as described (Ticha et al., 2017) [1]: 203 µM

Ac-RVRHA-{keto‑C(:O)NH-neopentyl} [Compound 7]
IC50 (µM), measured in vitro as described (Ticha et al., 2017) [1]: 2.15 µM

B2: Compound 11 (peptide)
peptide: Ac-RVRHA
modifications: also: C-terminal Ala as alpha-ketoamide, -CO-CO-NH-(CH2)4-Ph
notes: Structure is printed only as a drawing; Tail inferred from C39H62N14O7, MW 839.02; also called Cpd No. 11
IC50 (µM), measured in vitro as described (Ticha et al., 2017) [1]: 0.15 µM
Ki [2]: 10 to 100 nM

B3: Compound 10 (peptide)
peptide: Ac-RVRHA
modifications: also: C-terminal Ala as alpha-ketoamide, -CO-CO-NH-CH2-(2,5-dimethylphenyl)
notes: Structure is printed only as a drawing; Tail inferred from C38H60N14O7, MW 824.99; also called Cpd No. 10
IC50 (µM), measured in vitro as described (Ticha et al., 2017) [1]: 0.18 µM
Ki [2]: 10 to 100 nM

Ac-RVRHA (not fully specified (C-terminus)) [Compound 3]
IC50 (µM), measured in vitro as described (Ticha et al., 2017) [1]: 5.01 µM

Ac-RVRHA-{keto‑C(:O)NH-1‑phenylethyl} [Compound 5]
IC50 (µM), measured in vitro as described (Ticha et al., 2017) [1]: 13.8 µM

Ac-RVRHA-{keto‑C(:O)NH-pentyl} [Compound 8]
IC50 (µM), measured in vitro as described (Ticha et al., 2017) [1]: 1.08 µM

Ac-RVRHA-{keto‑C(:O)NH-isopropyl} [Compound 2]
IC50 (µM), measured in vitro as described (Ticha et al., 2017) [1]: 12.4 µM

Ac-His-Ala (not fully specified (C-terminus)) [Compound 14]
IC50 (µM), measured in vitro as described (Ticha et al., 2017) [1]: 48 µM

Ac-RVRHA-{keto‑C(:O)NH-ethoxycarbonylmethyl} [Compound 6]
IC50 (µM), measured in vitro as described (Ticha et al., 2017) [1]: 4.24 µM

Ac-RVWHA-{keto‑C(:O)NH-4‑phenylbutyl} [Compound 16]
IC50 (µM), measured in vitro as described (Ticha et al., 2017) [1]: 0.77 µM
